From US8962819B2, “Anti-C5 alpha antibodies” (Adienne S.A., priority 2002, dated 2015)

Key:
factor C5 = molecular target: T1, factor C5 (Homo sapiens, UniProt P01031); test: Surface plasmon resonance (BIACORE 2000) on C5 immobilized on chip; format: binding; settings: TS-A12/22 versus TS-A12 after VL chain shuffling
T1 construct: C5 alpha and beta subunits were obtained by incubating 50 μg of C5; purchased Quidel
Procedure: The binding affinity of the Tsa-12 antibody, purified by means of FPLC on Superdex 75 (Pharmacia), for factor C5 was measured by means of BIACORE™ 2000 (a system that generates unique data on the interactions between proteins and other molecules). The microchip (CM5, Biacore) was prepared by direct conjugation of the C5 antigen with amines (20 μg/ml in 10 mM Sodium Acetate pH 4.5). The final level of immobilisation turned out to be approximately 1000 RU (Resonance Units). Association and dissociation of antibody molecules from the bio-chip were measured using an optical detection system (Surface Plasmon Resonance). The analysis was carried out at 25° C., at a flow of 15 μl/min, using 4 different scFv concentrations in the range comprised between 100-300 nM, in PBS, 0.005% P20 (Biacore). The binding curves were interpolated 1:1 according to the model of Langmuir, using the dedicated software termed BIAevaluation (version 3.5) with correction for the mass transfer. In order to increase the affinity, the TS-A12 antibody was subjected to substitution (“shuffling”) of the VL light chains. For this purpose the phagemid DNA was cut with BssHII and SaII to excise the VL region. This region was substituted with all the repertoire of VL chains of a preimmune library (Sblattero, D., and Bradbury A., 2000, Nat. Biotechnol. 18:75) that was prepared with same enzymes. […]

C5 [1] = molecular target: T2, C5 (Homo sapiens, UniProt P01031); test: Haemolytic assay / TCC ELISA with EAC1-3b sheep erythrocytes and C5 depleted serum; format: biochemical; settings: FIG. 1B
T2 construct: C5 alpha and beta subunits were obtained by incubating 50 μg of C5; purchased Quidel
T2 sequence (P01031 678-1676 limits assumed): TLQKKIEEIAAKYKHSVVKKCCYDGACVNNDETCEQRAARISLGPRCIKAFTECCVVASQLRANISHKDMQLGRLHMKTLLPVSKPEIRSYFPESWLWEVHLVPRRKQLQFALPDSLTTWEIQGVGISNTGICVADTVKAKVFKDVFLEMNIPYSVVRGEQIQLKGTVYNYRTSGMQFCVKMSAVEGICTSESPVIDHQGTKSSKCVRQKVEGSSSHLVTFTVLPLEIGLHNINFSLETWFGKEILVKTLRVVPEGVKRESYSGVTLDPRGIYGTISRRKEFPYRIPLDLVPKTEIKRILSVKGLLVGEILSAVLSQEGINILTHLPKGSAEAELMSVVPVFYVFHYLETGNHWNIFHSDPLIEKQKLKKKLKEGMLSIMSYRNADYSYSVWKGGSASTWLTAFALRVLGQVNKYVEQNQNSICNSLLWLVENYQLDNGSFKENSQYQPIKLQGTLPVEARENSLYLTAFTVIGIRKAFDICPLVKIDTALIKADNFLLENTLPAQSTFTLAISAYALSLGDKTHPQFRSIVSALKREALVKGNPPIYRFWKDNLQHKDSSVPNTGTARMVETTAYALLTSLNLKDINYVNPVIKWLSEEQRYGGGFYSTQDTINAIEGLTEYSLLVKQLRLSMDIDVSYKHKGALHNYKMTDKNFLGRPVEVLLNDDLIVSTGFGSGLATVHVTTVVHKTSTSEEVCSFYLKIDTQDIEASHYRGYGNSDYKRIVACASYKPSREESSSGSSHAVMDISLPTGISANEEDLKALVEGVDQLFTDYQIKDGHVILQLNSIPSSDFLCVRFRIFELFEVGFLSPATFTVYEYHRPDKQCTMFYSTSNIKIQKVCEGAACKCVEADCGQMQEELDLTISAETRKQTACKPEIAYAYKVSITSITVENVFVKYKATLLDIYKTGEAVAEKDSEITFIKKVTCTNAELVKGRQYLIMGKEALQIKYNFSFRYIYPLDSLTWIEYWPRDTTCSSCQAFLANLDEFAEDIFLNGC
T2 sequence (P01031 19-673 partner limits assumed): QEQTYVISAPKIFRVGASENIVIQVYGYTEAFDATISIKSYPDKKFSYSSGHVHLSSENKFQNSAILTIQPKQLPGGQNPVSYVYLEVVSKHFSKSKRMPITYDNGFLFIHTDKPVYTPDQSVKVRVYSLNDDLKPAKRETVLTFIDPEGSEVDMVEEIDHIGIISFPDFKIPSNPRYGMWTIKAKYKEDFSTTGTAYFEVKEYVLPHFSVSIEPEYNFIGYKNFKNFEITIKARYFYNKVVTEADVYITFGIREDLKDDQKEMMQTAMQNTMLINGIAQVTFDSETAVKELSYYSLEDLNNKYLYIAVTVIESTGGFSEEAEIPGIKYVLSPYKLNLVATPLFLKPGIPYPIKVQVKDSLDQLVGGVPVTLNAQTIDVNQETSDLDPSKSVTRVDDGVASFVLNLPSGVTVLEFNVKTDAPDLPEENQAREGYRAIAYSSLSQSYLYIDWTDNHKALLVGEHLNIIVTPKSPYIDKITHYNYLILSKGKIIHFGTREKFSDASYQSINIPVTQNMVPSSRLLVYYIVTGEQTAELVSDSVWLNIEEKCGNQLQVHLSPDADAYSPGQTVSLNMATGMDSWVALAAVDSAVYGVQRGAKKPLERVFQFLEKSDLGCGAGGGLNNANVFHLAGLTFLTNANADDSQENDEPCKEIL
Procedure: Panel A) The ELISA assay measures the amount of C5a fragment released in the supernatant after enzymatic cleavage of C5, using antibodies anti-C5 as described in example 6. […] Sheep erythrocytes sensitised with antibodies and coated until the C3b (EAC1-3b) complement step were added to the mixture of TS-A12 or TS-A12/22 and C5, and the mixture was further incubated for 30 minutes at 37° C. (panel B).
Sheep erythrocytes (SBRC: Sheep red blood cells) were sensitised with sub-agglutinating amounts of rabbit IgM (EA). […]
The obtained anti-C5 scFv fragments were further characterised for their ability to inhibit the hemolytic activity of C5 or, in other words, to block conversion of the C5 component to C5a. […] At the end of this procedure, cell lysis was measured as percentage of the control of total lysis in distilled H2O (see FIG. 1, panel B). The inhibition of C5a and TCC production by the scFv TS-A12 and TS-A12/22 was measured by means of ELISA using the monoclonal antibody 17/5 as the capture antibody and antibody G25/2 as detection antibody according to what has been described in Opperman et al., 1991, Complement Inflamm. […] The presence of TCC was measured using antibody aE11 as the capture antibody and a biotinylated anti-C5 antibody (SIGMA-ALDRICH®) followed by alkaline phosphatase-conjugated streptavidin, as described by Tedesco et al. (1997, J Exp. Med. 185:1619).

C5 [2] = molecular target: T2, C5; test: Hemolytic assay, classical pathway (EAC1-3b sheep erythrocytes); format: biochemical; settings: 600 ng scFv, increasing amounts of C5, FIG. 4A
Procedure: Values from spectrophotometric reading performed at 412 nm to measure inhibition of lysis of sheep erythrocytes coated with EAC1-3b, through the classical complement activation pathway (A Panel); or of rabbit erythrocytes in order to measure the alternative pathway of complement activation (B Panel). Increasing amounts of C5 were mixed with 600 ng of the scFv antibody of the invention with an unrelated scFv, or with GVBS in which the scFv of the invention were solubilised, as described in example 9. After incubation with serum lacking in C5, obtained from a patient with selective deficiency of this complement component, the percentage of hemolysis was measured compared to the 100% value obtained by lysing erythrocytes in an equal volume of distilled H2O and a blank obtained by resuspending eythrocytes in GBVS. Having assessed the characteristics of the inhibition of the classical activation pathway of factor C5 by the TS-A12/22 antibody, it was then verified whether there was inhibition also of the alternative pathway of C5 activation, and at which level. […] After incubation for 30 minutes at 37° C., the percentage of erythrocyte lysis was measured by comparison to a 100% value obtained by lysing erythrocytes with an equal volume of distilled of H2O and to a blank consisting of erythrocytes re-suspended in GBVS. […]

T1 sequence (P01031 678-1676 limits assumed): as the sequence (P01031 678-1676 limits assumed) above
T1 sequence (P01031 19-673 partner limits assumed): as the sequence (P01031 19-673 partner limits assumed) above

B1: TS-A12/22: anti-C5 scFv obtained from TS-A12 by VL chain shuffling; VH3/V-48 and Vλ3/V2-14; amino acid sequence SEQ ID NO:6 (protein, listed as Homo sapiens)
scFv: DIRMTQSPDSLAVSLGERATINCKSSQSVLYSSNNKNYLAWYQQKPGQPPKLLIYWASTRESGVPDRFSGSGSGTDFTLTISSLQAEDVAVYYCQQYYSTPQLTFGGRTKVDIKSGGSTITSYNVYYTKLSSSGTQVQLQQSEGGVVQPGRSLRLSCAASGFTFSSYGMNWVRQAPGKGLEWVSYISSSSSTIYYADSVKGRFTISRDNSKNTLYLQMNSLRAEDTAVYYCARGPGMDVWGQGTTVTVSS
- increment of molar affinity (factor C5): approximately one order of magnitude
- inhibition of formation of TCC (C5 [1]): inhibit almost completely
- inhibition of erythrocyte lysis through the classical pathway (C5 [2]): inhibits
